The source of these data is patent US20230038638A1, “COMPLEMENT FACTOR I-RELATED COMPOSITIONS AND METHODS” (published 2023).

One assay concerns the target T1, human C4b (human) (UniProt P0C0L5).
T1 sequence: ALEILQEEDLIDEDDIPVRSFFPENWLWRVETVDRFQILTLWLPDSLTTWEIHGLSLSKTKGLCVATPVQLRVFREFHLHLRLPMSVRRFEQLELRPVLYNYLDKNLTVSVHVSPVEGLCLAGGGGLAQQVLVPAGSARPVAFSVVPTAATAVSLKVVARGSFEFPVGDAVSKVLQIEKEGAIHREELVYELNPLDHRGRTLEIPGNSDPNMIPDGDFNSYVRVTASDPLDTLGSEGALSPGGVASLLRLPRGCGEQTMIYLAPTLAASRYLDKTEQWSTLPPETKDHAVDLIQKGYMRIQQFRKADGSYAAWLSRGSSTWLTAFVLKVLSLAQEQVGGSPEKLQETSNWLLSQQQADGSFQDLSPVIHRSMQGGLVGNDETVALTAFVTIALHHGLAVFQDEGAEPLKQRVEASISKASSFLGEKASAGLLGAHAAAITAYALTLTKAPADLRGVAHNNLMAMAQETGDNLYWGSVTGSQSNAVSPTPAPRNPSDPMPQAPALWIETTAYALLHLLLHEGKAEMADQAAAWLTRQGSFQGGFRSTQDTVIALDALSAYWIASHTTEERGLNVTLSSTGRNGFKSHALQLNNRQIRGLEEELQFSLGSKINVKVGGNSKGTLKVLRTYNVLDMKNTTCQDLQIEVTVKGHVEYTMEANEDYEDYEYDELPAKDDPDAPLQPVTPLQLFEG

The target of assay [1] is soluble human C3b (human) (UniProt P01024).

With CFI-HSA variant F559L; V565I (enzyme), the C4b Screen Ref Fold (fold of CFI-HSA wild type) in the assay with human C4b (human) is 0.77. The iC3b Screen Ref Fold (fold of CFI-HSA wild type) in assay [1] was determined as 1.59.
For “CFI-HSA variant F559L; V565I; P558S (enzyme)”, in the assay with human C4b (human), the C4b Screen Ref Fold (fold of CFI-HSA wild type) turned out to be 0.43. The iC3b Screen Ref Fold (fold of CFI-HSA wild type) in assay [1] is 0.49.
In the same order, the values of CFI-HSA variant F559L; V565T (enzyme) are 0.28 and 0.54.
For the substance “CFI-HSA variant F559L; Y563H; V565T (enzyme)”, the C4b Screen Ref Fold (fold of CFI-HSA wild type) with human C4b (human) turned out to be 0.55. Moreover, in assay [1], the iC3b Screen Ref Fold (fold of CFI-HSA wild type) worked out at 0.58.
In the case of CFI-HSA variant F559Y (enzyme), the C4b Screen Ref Fold (fold relative to CFI-HSA wild type) with human C4b (human) turned out to be 0.66. Further, the iC3b Screen Ref Fold (fold relative to CFI-HSA wild type) in assay [1] is 1.23.
On to CFI-HSA variant G556P (enzyme), for which the C4b Screen Ref Fold (fold of CFI-HSA wild type) with human C4b (human) came out at 0.65. The iC3b Screen Ref Fold (fold of CFI-HSA wild type) in assay [1] turned out to be 0.39.
The like results for CFI-HSA variant G556P; P558G (enzyme) were, in that order, 1.86 and 0.68.
Regarding CFI-HSA variant H370A (enzyme), the C4b Screen Ref Fold (fold vs CFI-HSA wild type) with human C4b (human) turned out to be 0.37. The iC3b Screen Ref Fold (fold vs CFI-HSA wild type) in assay [1] was 0.57.
Regarding CFI-HSA variant I322V (enzyme), the C4b Screen Ref Fold (fold vs CFI-HSA wild type) with human C4b (human) was 0.38. Besides, the iC3b Screen Ref Fold (fold vs CFI-HSA wild type) in assay [1] was determined as 0.39.
The like results for CFI-HSA variant I322V; V323I (enzyme) were, in that order, 0.31 and 0.39.
The like results for “CFI-HSA variant I322V; V323I; R327P (enzyme)” were, in that order, 0.38 and 0.36.
CFI-HSA variant K14A; D425R (enzyme): the C4b Screen Ref Fold (fold vs CFI-HSA wild type) with human C4b (human) came to 0.64. For the same substance, the iC3b Screen Ref Fold (fold vs CFI-HSA wild type) in assay [1] turned out to be 0.99.
As for CFI-HSA variant K14E (enzyme), in the assay with human C4b (human), the C4b Screen Ref Fold (fold of CFI-HSA wild type) worked out at 1.35. Besides, in assay [1], the iC3b Screen Ref Fold (fold of CFI-HSA wild type) stood at 1.74.
The like results for CFI-HSA variant K14E; E487K (enzyme) were, in that order, 0.7 and 1.43.
CFI-HSA variant K326A-R327A (enzyme): in the assay with human C4b (human), the C4b Screen Ref Fold (fold vs CFI-HSA wild type) stood at 0.2. In assay [1], the iC3b Screen Ref Fold (fold vs CFI-HSA wild type) came out at 0.37.
In the same order, the values of CFI-HSA variant K504G (enzyme) are 0.15 and 0.17.
The like results for CFI-HSA variant K504P (enzyme) were, in that order, -0.02 and 0.01.
In the case of CFI-HSA variant M220A-K221Q (enzyme), the C4b Screen Ref Fold (fold vs CFI-HSA wild type) with human C4b (human) stood at 1.85. Also, the iC3b Screen Ref Fold (fold vs CFI-HSA wild type) in assay [1] worked out at 0.49.
The like results for “CFI-HSA variant N52Q; N85Q; N159Q (enzyme)” were, in that order, 0.24 and 1.93.
In the case of CFI-HSA variant N85Q (enzyme), the C4b Screen Ref Fold (fold vs CFI-HSA wild type) with human C4b (human) is 0.66. In addition, the iC3b Screen Ref Fold (fold vs CFI-HSA wild type) in assay [1] was 2.47.
CFI-HSA variant N159Q (enzyme): in the assay with human C4b (human), the C4b Screen Ref Fold (fold vs CFI-HSA wild type) worked out at 0.75. Also, the iC3b Screen Ref Fold (fold vs CFI-HSA wild type) in assay [1] was 2.21.
As for CFI-HSA variant N402E (enzyme), the C4b Screen Ref Fold (fold vs CFI-HSA wild type) with human C4b (human) was 1.64. Besides, the iC3b Screen Ref Fold (fold vs CFI-HSA wild type) in assay [1] is 0.75.
On to “CFI-HSA variant N531G; P535A; GGSSGG (SEQ ID NO: 6); CR1(ccp15-17) (from UniProt P17927) (enzyme)”, for which the C4b Screen Ref Fold (fold of CFI-HSA wild type) in the assay with human C4b (human) amounted to 3.53. Besides, the iC3b Screen Ref Fold (fold of CFI-HSA wild type) in assay [1] is 0.14.
The like results for “CFI-HSA variant N531G; P535G; N422K (enzyme)” were, in that order, 2.85 and 1.96.
In the same order, the values of “CFI-HSA variant N531G; P535G; WT; GGSSGG (SEQ ID NO: 6); CR1(ccp15-17) (from UniProt P17927) (enzyme)” are 3.06 and 0.06.
For “CFI-HSA variant N531G; WT; GGSSGG (SEQ ID NO: 6); CR1(ccp15-17) (from UniProt P17927) (enzyme)”, in the assay with human C4b (human), the C4b Screen Ref Fold (fold of CFI-HSA wild type) turned out to be 5.3. Moreover, in assay [1], the iC3b Screen Ref Fold (fold of CFI-HSA wild type) stood at 0.05.
Turning to CFI-HSA variant P535G (enzyme), the C4b Screen Ref Fold (fold vs CFI-HSA wild type) in the assay with human C4b (human) came to 0.3. The iC3b Screen Ref Fold (fold vs CFI-HSA wild type) in assay [1] is 0.19.
In the case of CFI-HSA variant P535G; K534Q (enzyme), in the assay with human C4b (human), the C4b Screen Ref Fold (fold of CFI-HSA wild type) is 0.35. In addition, in assay [1], the iC3b Screen Ref Fold (fold of CFI-HSA wild type) came out at 0.24.
In the same order, the values of CFI-HSA variant P535G; N422K (enzyme) are 0.09 and 0.52.
For the substance CFI-HSA variant P535G; P558S (enzyme), the C4b Screen Ref Fold (fold of CFI-HSA wild type) with human C4b (human) was 0.2. The iC3b Screen Ref Fold (fold of CFI-HSA wild type) in assay [1] was determined as 0.25.
“CFI-HSA variant P535G; WT; GGSSGG (SEQ ID NO: 6); CR1(ccp15-17) (from UniProt P17927) (enzyme)”: in the assay with human C4b (human), the C4b Screen Ref Fold (fold of CFI-HSA wild type) is 2.73. In addition, the iC3b Screen Ref Fold (fold of CFI-HSA wild type) in assay [1] was determined as 0.
With CFI-HSA variant P535K (enzyme), the C4b Screen Ref Fold (fold vs CFI-HSA wild type) in the assay with human C4b (human) was found to be 1.02. The iC3b Screen Ref Fold (fold vs CFI-HSA wild type) in assay [1] came to 1.61.
For the substance CFI-HSA variant P558S; F559L (enzyme), the C4b Screen Ref Fold (fold of CFI-HSA wild type) with human C4b (human) worked out at 0.9. Also, the iC3b Screen Ref Fold (fold of CFI-HSA wild type) in assay [1] amounted to 0.54.
Consider CFI-HSA variant R327P (enzyme), for which the C4b Screen Ref Fold (fold vs CFI-HSA wild type) with human C4b (human) came out at 1.67. The iC3b Screen Ref Fold (fold vs CFI-HSA wild type) in assay [1] stood at 0.67.
In the same order, the values of CFI-HSA variant R462A (enzyme) are 0.31 and 0.11.
The like results for CFI-HSA variant R462D (enzyme) were, in that order, -0.05 and 0.
In the same order, the values of CFI-HSA variant R462K (enzyme) are 0.27 and 0.24.
With CFI-HSA variant S250A; D425R (enzyme), in the assay with human C4b (human), the C4b Screen Ref Fold (fold vs CFI-HSA wild type) is 0.14. The iC3b Screen Ref Fold (fold vs CFI-HSA wild type) in assay [1] was determined as 1.01.
In the same order, the values of CFI-HSA variant S507A (enzyme) are 0.13 and 0.04.
In the case of “CFI-HSA variant S507A; GGSSGG (SEQ ID NO: 6); CR1(ccp1-3) (from UniProt P17927) (enzyme)”, in the assay with human C4b (human), the C4b Screen Ref Fold (fold of CFI-HSA wild type) is 0.12. The iC3b Screen Ref Fold (fold of CFI-HSA wild type) in assay [1] turned out to be 0.02.
In the same order, the values of “CFI-HSA variant S507A; GGSSGG (SEQ ID NO: 6); CR1(ccp15-17) (from UniProt P17927) (enzyme)” are -0.01 and -0.01.
For the substance CFI-HSA variant S552G (enzyme), in the assay with human C4b (human), the C4b Screen Ref Fold (fold of CFI-HSA wild type) turned out to be 1.08. For the same substance, the iC3b Screen Ref Fold (fold of CFI-HSA wild type) in assay [1] was found to be 0.58.
The like results for CFI-HSA variant S552G; F559L (enzyme) were, in that order, 1.41 and 0.79.
In the same order, the values of “CFI-HSA variant S552G; F559L; P558S (enzyme)” are 0.93 and 0.44.
With “CFI-HSA variant S552G; F559L; V565I (enzyme)”, the C4b Screen Ref Fold (fold of CFI-HSA wild type) in the assay with human C4b (human) was 0.73. Further, in assay [1], the iC3b Screen Ref Fold (fold of CFI-HSA wild type) amounted to 0.42.
The like results for “CFI-HSA variant S552G; F559L; V565I; P558S (enzyme)” were, in that order, 1.8 and 0.49.
Regarding CFI-HSA variant S552G; V565I (enzyme), the C4b Screen Ref Fold (fold of CFI-HSA wild type) with human C4b (human) turned out to be 1.23. For the same substance, the iC3b Screen Ref Fold (fold of CFI-HSA wild type) in assay [1] worked out at 1.58.
The like results for “CFI-HSA variant S552G; V565I; P558S (enzyme)” were, in that order, 0.89 and 1.32.
As to “CFI-HSA variant S552G; Y553H; F559L; P558S (enzyme)”, the C4b Screen Ref Fold (fold of CFI-HSA wild type) in the assay with human C4b (human) was 2.33. Moreover, the iC3b Screen Ref Fold (fold of CFI-HSA wild type) in assay [1] worked out at 0.18.
The like results for “CFI-HSA variant S552G; Y553H; F559L; V565I; P558S (enzyme)” were, in that order, 2.44 and 0.62.
On to “CFI-HSA variant T495F; Y496L; D497E; S499G; I500K (enzyme)”, for which the C4b Screen Ref Fold (fold vs CFI-HSA wild type) in the assay with human C4b (human) was -0.04. The iC3b Screen Ref Fold (fold vs CFI-HSA wild type) in assay [1] came to 0.
